B1: TPR t1 (parent)
chain: GACCAAUCUGCCCUCAGAGCUCGAGAACAUCUUCGGAUGCAGAGGAGGCAGGCUUCGGUGGCGCGAUAGCGCCAACGUCCUCAACCUCCAAUGCAUCCCACCACAUGAUGAUGCCUGAAGAGCCUUGGUUUUUUG

In this data set the parent is B1. As to the kind of experiment: polymerase ribozyme fitness, log enrichment relative to wild type (log ratio); higher = more active; in vitro selection for triplet polymerase activity. A digest of the protocol: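 Fitness compares each genotype's enrichment to that of the wild type on a logarithmic scale, averaging replicates with inverse-variance weights. The logarithm is base 2. Enrichment came from Illumina sequencing of input and output libraries after one triplicate round of in vitro selection, which included frozen incubation at −7 °C, of PCR-built, transcribed mutant libraries of each subunit of a heterodimeric triplet polymerase ribozyme. Only genotypes with ≥10 input reads and ≥1 read per output were kept.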
Turning to GACCAAUCUGCCCUCAGAGCUCGAGAACAUCUUCGGAUGCAGAGGAGGCAGGCUUCGGUGGCACGAUAGCGCCAACGUCCUCAACCUCCAAUGCAUCCCACCACAUGAUGAUGCGUGAAGAGCCUUGGUUUUUUG, the “polymerase ribozyme fitness (log ratio)” value was -3.51.
In the case of GACCAAUCAGCCCUCAGAGCUCGAGAACAUCUUCGGAUCCAGAGGAGGCAGGCUUCGGUGGCGCGAUAGCGCCAACGUCCUCAACCUCCAAUGCAUCCUACCACAUGAUGAUGCCUGAAGAGCCUUGGUUUUUUG it was -2.83; in that of GGCCAAUCUGCCCUCAGAGCUAGAGAACAUCUUCGGAUGCAGAGGAGGCAGGCUUCGGUGGCGCGAUAGCGCCAACGUCCUCAACCUCCAAUGCAUCCCACCACAUGAUGAUGCCUGAAGAGCCUUGGUUUUUUG, -4.99; in that of GAUCAAUCUGCCCUCAGAGCUCGAGAACAUCUUCGGAUGCAGAGGAGGCCGGCUUCGGUGGCGCGAUAGCGCCCACGUCCUCAACCUCCAAUGCAGCCCACCACAUGAUGAUGCCUGAAGAGCCUUGGUUUUUUG, -1.84.
In the case of GACCAAUCUGCCCUCAGAGCUCGAGAACAUCUUCGGAUGCAGAGGAGGCAGGCUUCGGUGGCGCGAUAGCGCCAACGUCCUCAACCUCCAAUGCAUCCCACCAAAUGAUGAUGCCUGAAGAACCUUGGUUUUUUG it was -2.31.
In the case of GACCAAUCCGCCCUCAGAGCUCGAGACCAUCUUCGGAUGGAGAGGAGGCAGGCUUCGGUGGCGCGAUAGCGACAACGUCCUCAACCUCCAAUGCAUCCCACCACAUGAUGAUGCCUGAAGAGCCUUGGUUUUUUG it was -3.22; in that of GACCAAUCUGCCCUCAGAGCUCGAGAACAUCUUCGGAUGCAGAGGAGGCAGGCUUCGGUGGCGCGAUAUCGCCAACGUCCUCAACCUCCAAUGCAUCCCACCACAUGAUGAUGCCAGAAGAGCCUUGGUUUUUUG, -1.65; in that of GACCAAUCUACCCUCAGAGCUCGAGAAGAUCUUCGGAUGCAGAGGAGGCAGGCUUCGGUGGCGCGAUAGCGCCAACGUCCUCAACCUCCAAUGCAUCCCACCACAAGAUGAUGCCUGAAGAGCCUUUCUUUUUUG, -3.76.
For the variant GACCAAUCUCCCCUCAGAGCUCGAGAACAUCUUCGGAUGCAGAGGAGGGAGGCUUCGGUGGCGUGAUAGCGCCAACGUCCUCGACCUCCAAUGCAUCCCACCACAUGAUGAUGCCUGAAGAGCCAUGGUUUUUUG, the “polymerase ribozyme fitness (log ratio)” value is -3.57.
In the case of GACCAAUCUGCCCUCAGAGCUCGAGAACAUCUUCGGAUGCAGAUGAGGCAGGCUUCGGUGGCGCGAUAGCGCCAACGUCCUCAACCUCCAAUGCAUCUCACCACAUGAUGAUGCCUGAAGAGCCGUUGUUUUUUG it was -3.43; in that of GACCAAUCUGCCCUCAGAGCUCGAGAACAUCUUCGGAUGCAGAGGAGGCAAGCUUCGGUGGCGCGAUAGCGCCAACGUCCUUAACCUCCAAUGCAUCCCACCACAUGAUGAUGCCUGAAGAGCUUUGGUUUUUUG, 0.555; in that of GACCAAUCUGCCCUCAGAGCUCGAGAACAUCUUCGGAUGCAGAGGAGGCAGGCUUCGGUGGCGCGAUAGCGCCAACGUCCUUAACCUCCAAUGCAUCCCACCACAUGAUGAUGCAUGAAGAGCCUUGGUUUUUUG, -0.595.
Consider GACCAAUCUGCCAUCAGAGCUCGAGAACAUCUUCGGAUGCAGAGGAGGCAGGCUUCGGUGGCGCGAUAGCGCCAACUUCCUCAACCUCCAAUGCAUCCCACCACAAGAUGAUGACUGAAGAGCCUUGGUUUUUUG, for which the “polymerase ribozyme fitness (log ratio)” value is -4.55.
In the case of GACGAAUCUGCCCUCAGAGCUCGAGAACAUCUUCGGAUGCAGAGGAGGCAGGCUUCGGUGGCGCGAUAGCGCCAACGUUCUCAACCUCCAAUGCAUCCCACCAUAUGAUGAUGCCUGAAGAGCCUUGGUUUUUUG, the “polymerase ribozyme fitness (log ratio)” value is -1.62.
GACCAAUCUGCCCUCAGAGCUCGAGAACAUCUUCGGAUGCAGAGGAGGCAGGCUUCGGUGGCGCGAUAGUGCCAACGUCCUCAACCUCCAAUGCAUCCCACCACAUGAUGGUGCCUGAACAGCCUUGGUUUUUUG: the “polymerase ribozyme fitness (log ratio)” value was -4.93.
In the case of GACCAAUCUGCCCUCAGAGCUCAAGGACAUCUUCGGAUGCAGAGGAGGCAGGCUUCGGUGGCGCGAUAGCGCCAACGUCCUCAACCUCCAAUGCAUCCCACCAAAUGAUGAUGCCUGAAGAGCCUUGGUUUUUUG it was -5.12; in that of GACCAAUCUGCCCUCAGAGCUCGAGAACAUCUUCGGAUGCAGAGGAGGCAGGCUUCGGUGGCGCGAUAGCGCCAUCGUCCACAACCUCCAAUGCAUCCCACCACAUGAUGAUCCCUGAAGAGCCUUGGUCUUUUG, -3.89.
In the case of GACCAAUCUGCCCUCAGAGCUCGAGAACAUCUUCGGAUGCAGAGGAUGCAGGCUUCGUUGGCGCGAUAGCGCCAACGUCCUCAACCUUCAAUGCAUCCCACCACAUGAUGAUGCCUGAAGAGCCUUGGUUUUUUG it was -2.22; in that of GACCAGUGUUCCCUCAGAGCUCGAGAACAUCUUCGGAUGCAGAGGAGGCAGGCUUCGGUGGCGCGAUAGCGCCAAAGUCCUCAACCUCCAAUGCAUCCCACCACAUGAUGAUGCCUCAAGAGCAUUGGUUUUUUG, -2.05.
Take GACCAAUCUGCCCUCAGAGCUCGAGAACAUCUUCGGAUUCAGAGGGGGCAGGCUUCGGUGGCACGAUAGCGCCAACGUCCUCAACCUCCAAUGCAUCCCACCACAUGAUGAUGCGUGAAGAGCCUUGGUUUUUUG: the “polymerase ribozyme fitness (log ratio)” value is -1.83.
With GACCAAUCUGCCCUCAGAGCUCGAGAACAUCUUCGGAUGCAGAGGAGGCAGGCUUCGGUGGCGCGAUAGCGCCAACGUCCUCAACCUCCAAUGCCUCCCACCACAUGAUGAUGCCCGAAGAGCCUUGGAUCUUUU, the “polymerase ribozyme fitness (log ratio)” value is -3.

The values above are taken from the RNAGym collection of RNA variant scans (doi:10.1073/pnas.2313332121).
